# Assay results taken from patent US20220153859A1 (ANOKION, published 2022).
# Where a chain is given by its changes, count along the chain named.
# T1: Human glycophorin A extract (hGPA extract) (human, UniProt P02724 20-150)
# T1 construct: also called human GPA extracted from red blood cells (extract)
# T1 sequence (looked up): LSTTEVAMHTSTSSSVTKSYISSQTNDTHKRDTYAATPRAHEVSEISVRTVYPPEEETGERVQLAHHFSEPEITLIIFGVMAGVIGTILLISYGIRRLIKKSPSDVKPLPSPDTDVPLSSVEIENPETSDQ
# T2: Human glycophorin A on human erythrocytes (human, UniProt P02724 20-150)
# T2 construct: whole, on cells; Target of the flow cytometry assays on human erythrocytes; also called human GPA; hGPA
# T2 sequence (looked up): T1 sequence (looked up)
# B1: Humanized & affinity matured 10F7-M10 Fab clone L1+2-5 (Fab)
# heavy: EVQLLESGGGLVQPGKSLRLSCKASGYTFNSYFMHWVRQAPGKGLEWVGMIRPNGGTTDYNEKFKNRFTLSVDKSKNTAYLQMNSLRAEDTAVYYCARWEGSYYALDYWGQGTASTKGPSVFPLAPSSKSTSGGTAALGCLVKDYFPEPVTVSWNSGALTSGVHTFPAVLQSSGLYSLSSVVTVPSSSLGTQTYICNVNHKPSNTKVDKKVEPKSC
# light: EITLTQSPATLSLSPGERATLSCRASSNVYNMYWYQQKPGQAPRLWIHRTSNLASGIPDRFSGSGSGTDYTLTISRLEPEDFAVYYCQQFTSSPYTFGQGTKVEVKRTVAAPSVFIFPPSDEQLKSGTASVVCLLNNFYPREAKVQWKVDNALQSGNSQESVTEQDSKDSTYSLSSTLTLSKADYEKHKVYACEVTHQGLSSPVTKSFNRGEC
# notes: Soluble Fab from HEK cells; all domains other than VL are the same as wild-type 10F7-M10; also called YN-HR-N
# B2: Humanized & affinity matured 10F7-M10 Fab clone L1+2-19 (Fab)
# heavy: B1 heavy
# light: B1 light with N31Q, R49H, N52F
# notes: the tie is by these residues, not by the label; also called YQ-HH-F
# B3: Humanized & affinity matured 10F7-M10 Fab clone L1+2-16 (Fab)
# heavy: B1 heavy
# light: B1 light with Y30F, N31Q, R49H, N52E
# notes: Soluble Fab from HEK cells; all domains other than VL are the same as wild-type 10F7-M10; also called FQ-HH-E
# B4: Humanized & affinity matured 10F7-M10 Fab clone L1+2-7 (Fab)
# heavy: B1 heavy
# light: B1 light with Y30H, N31H, R49H, N52L
# notes: Soluble Fab from HEK cells; all domains other than VL are the same as wild-type 10F7-M10; also called HH-HH-L
# B5: hF-3-103M1 Fab (humanized 3-103, clone M1; parental / wild-type Fab) (Fab, V domains shown)
# VH: QVQLVQSGAEVKKPGASVKVSCTASGFNIKDTYMLWVRQAPGQGLEWMGRIDPANANSRYDPKFQGRVTITADTSTNTAYMELSSLRSEDTAVYYCVDGYMFAYWGQGTLVTVSS
# VL: DVVMTQTPLSLSVTPGQPASISCKSSQSLLYSNGKTYLHWLLQKPGQSPQRLIYLVSKLDSGVPDRFSGSGSGTDFTLKISRVEAEDVGVYYCVQGTHFPLTFGQGTKLEIKR
# notes: Soluble humanized Fab; also called parent Fab
# B6: CDRL2_18 (Fab, V domains shown)
# VH: B5 VH
# VL: B5 VL with V56L, S57N, K58R, D60H
# notes: copies: 1 + 1
# B7: CDRL2_49 (Fab, V domains shown)
# VH: B5 VH
# VL: B5 VL with V56L, S57N, K58R, L59M, D60S
# notes: column Notes: 'ELISA Hit'; copies: 1 + 1
# B8: CDRH1_25 (Fab, V domains shown)
# VH: B5 VH with D31H, T32V, M34I
# VL: B5 VL
# notes: copies: 1 + 1
# B9: CDRL2_33 (Fab, V domains shown)
# VH: B5 VH
# VL: B5 VL with V56N, K58R, D60H
# notes: copies: 1 + 1
# B10: CDRH1_15 (Fab, V domains shown)
# VH: B5 VH with K30R, D31K, M34I
# VL: B5 VL
# notes: copies: 1 + 1
# B11: CDRL2_32 (Fab, V domains shown)
# VH: B5 VH
# VL: B5 VL with V56L, S57N, K58R, D60S
# notes: copies: 1 + 1
# B12: CDRH1_14 (Fab, V domains shown)
# VH: B5 VH with K30R, D31N, T32I, M34L
# VL: B5 VL
# notes: column Notes: 'Duplicate ELISA hit'; copies: 1 + 1
# B13: CDRL2_37 (Fab, V domains shown)
# VH: B5 VH
# VL: B5 VL with V56S, S57N, K58R, D60H
# notes: copies: 1 + 1
# B14: CDRH1_1 (Fab, V domains shown)
# VH: B5 VH with K30R, D31A, M34I
# VL: B5 VL
# notes: copies: 1 + 1
# B15: CDRH1_24 (Fab, V domains shown)
# VH: B5 VH with D31T, T32V, M34I
# VL: B5 VL
# notes: copies: 1 + 1
# B16: Humanized & affinity matured 10F7-M10 Fab clone L1+2-28 (Fab)
# heavy: B1 heavy
# light: B1 light with N31W, R49H, N52D
# notes: Soluble Fab from HEK cells; all domains other than VL are the same as wild-type 10F7-M10; also called YW-HH-D
# B17: Humanized & affinity matured 10F7-M10 Fab clone L1+2-35 (Fab)
# heavy: B1 heavy
# light: B1 light with N31W, R49H, N52E
# notes: Soluble Fab from HEK cells; all domains other than VL are the same as wild-type 10F7-M10; also called YW-HH-E
# B18: Humanized & affinity matured 10F7-M10 Fab clone L1+2-39 (Fab)
# heavy: B1 heavy
# light: B1 light with Y30F, N31F, R49H, N52V
# notes: Soluble Fab from HEK cells; all domains other than VL are the same as wild-type 10F7-M10; also called FF-HH-V
# Target: T1, Human glycophorin A extract (hGPA …)
# Experiment: Octet BLI, hGPA extract, apparent KD; biphasic off-rate to fit data
row,Kd,Binder
1,10 nM,B1
2,6.83 nM,B2
3,6.18 nM,B3
4,23 nM,B4

# Target: T2, Human glycophorin A on human …
# Experiment: flow cytometry on human erythrocytes, Fab in culture supernatant [C]
# Outline: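 Fabs chosen from one CDR library by next-generation-sequencing enrichment were expressed as soluble Fabs in HEK cells in high-throughput format. Fab concentration in the culture supernatant was quantified by Octet biolayer interferometry. Supernatant Fabs were tested for binding to human erythrocytes by flow cytometry, read as median fluorescence intensity curves. These curves were compared with the parental Fab.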
row,binding result,Binder
1,binds,B5

# Target: T3, Cynomolgus glycophorin A on cynomolgus erythrocytes (cynomolgus monkey)
# T3 construct: whole, on cells; also called cyno GPA; cyno erythrocytes
# Experiment: FACS (flow cytometry) on cynomolgus erythrocytes (cRBCs)
# Outline: (§1)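 Fabs chosen by next-generation-sequencing enrichment and phage ELISA screens were expressed as soluble Fabs in HEK cells. The top-ranking Fabs were purified with CH1 resin. Binding to human or cynomolgus erythrocytes was measured by flow cytometry and reported as EC50.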
row,EC50,Binder
1,8.3 nM,B6
2,13 nM,B7
3,10.2 nM,B8
4,8.3 nM,B9
5,10.6 nM,B10
6,11.1 nM,B11
7,10.8 nM,B12
8,10.1 nM,B13
9,11.6 nM,B14
10,10.6 nM,B15

# Target: T2, Human glycophorin A on human …
# Experiment: flow cytometry (FACS) on human erythrocytes, soluble Fab
row,EC50,Binder
1,8.8 nM,B1
2,4.6 nM,B2
3,3.7 nM,B16
4,4.6 nM,B3
5,6.9 nM,B4
6,4.6 nM,B17
7,2.7 nM,B18

# Target: T1, Human glycophorin A extract (hGPA …)
# Experiment: Octet BLI, hGPA extract, apparent; biphasic off-rate to fit data
koff,kon,Binder
0.0081 s⁻¹,790000 M⁻¹ s⁻¹,B1
0.0033 s⁻¹,480000 M⁻¹ s⁻¹,B2
0.0038 s⁻¹,610000 M⁻¹ s⁻¹,B3
0.0037 s⁻¹,160000 M⁻¹ s⁻¹,B4

# Target: T1, Human glycophorin A extract (hGPA …)
# Experiment: Biacore SPR, hGPA extract, apparent KD; biphasic off-rate to fit data
row,Kd,Binder
1,10.2 nM,B1
2,6.83 nM,B2
3,6.18 nM,B3
4,23.2 nM,B4

# Target: T1, Human glycophorin A extract (hGPA …)
# Experiment: Biacore SPR, hGPA extract, apparent; biphasic off-rate to fit data
koff,kon,Binder
0.00808 s⁻¹,795000 M⁻¹ s⁻¹,B1
0.00326 s⁻¹,477000 M⁻¹ s⁻¹,B2
0.00376 s⁻¹,608000 M⁻¹ s⁻¹,B3
0.00371 s⁻¹,160000 M⁻¹ s⁻¹,B4

# Target: T1, Human glycophorin A extract (hGPA …)
# Experiment: Octet BLI, hGPA extract, apparent
koff,kon,Binder
0.0021 s⁻¹,610000 M⁻¹ s⁻¹,B16
0.0014 s⁻¹,81000 M⁻¹ s⁻¹,B17
0.0012 s⁻¹,250000 M⁻¹ s⁻¹,B18

# Target: T2, Human glycophorin A on human …
# Experiment: FACS (flow cytometry) on human erythrocytes (hRBCs)
# Outline: as §1
row,EC50,Binder
1,2.5 nM,B6
2,4.4 nM,B7
3,3.1 nM,B8
4,4.4 nM,B9
5,3.1 nM,B10
6,4.2 nM,B11
7,4.2 nM,B12
8,2.8 nM,B13
9,4.3 nM,B14
10,3.1 nM,B15

# Target: T1, Human glycophorin A extract (hGPA …)
# Experiment: Biacore SPR, hGPA extract, apparent KD
row,Kd,Binder
1,3.49 nM,B16
2,16.7 nM,B17
3,4.82 nM,B18

# Target: T1, Human glycophorin A extract (hGPA …)
# Experiment: Biacore SPR, hGPA extract, apparent
koff,kon,Binder
0.00214 s⁻¹,614000 M⁻¹ s⁻¹,B16
0.00136 s⁻¹,81300 M⁻¹ s⁻¹,B17
0.00121 s⁻¹,250000 M⁻¹ s⁻¹,B18

# Target: T1, Human glycophorin A extract (hGPA …)
# Experiment: Octet BLI, hGPA extract, apparent KD
row,Kd,Binder
1,3.5 nM,B16
2,17 nM,B17
3,4.8 nM,B18
